According to PMC2943749:
“And” between values parts separate entries of the source, which are not always exact repeats. Equal entries are not always repeated.

Target: PtdIns5P 4-kinase IIβ, genomically tagged with a FLAG-(His6)2 tag (DT40 cell line JPR3) (chicken (endogenous in DT40))
Test: affinity purification with mass spectrometry

ratio IIβ/IIα in the pull-down (peptide set 559/565): 1.39 and 1.37 and 1.75
ratio IIβ/IIα in the pull-down (peptide set 829/828): 0.92 and 1.41 and 1.47
Substance: PtdIns5P 4-kinase IIα, endogenous and untagged (in JPR3 DT40 cells) (from UniProt Q5F356 1-405) (enzyme)
